Laboratory results: patent US20220332804A1 (CSL INNOVATION, published 2022)

Legend:
Experiment in all cases: SPR, KD relative to WT C2;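 further: biacore SPR at 37 °C, anti-C2 mAbs captured on anti-human IgG chips with alanine or serine point mutants of C2 as analyte, KD from 1:1 fit compared with wild-type C2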
[1] = molecular target: T1, human C2 H451A (human, UniProt P06681 21-752)
T1 sequence: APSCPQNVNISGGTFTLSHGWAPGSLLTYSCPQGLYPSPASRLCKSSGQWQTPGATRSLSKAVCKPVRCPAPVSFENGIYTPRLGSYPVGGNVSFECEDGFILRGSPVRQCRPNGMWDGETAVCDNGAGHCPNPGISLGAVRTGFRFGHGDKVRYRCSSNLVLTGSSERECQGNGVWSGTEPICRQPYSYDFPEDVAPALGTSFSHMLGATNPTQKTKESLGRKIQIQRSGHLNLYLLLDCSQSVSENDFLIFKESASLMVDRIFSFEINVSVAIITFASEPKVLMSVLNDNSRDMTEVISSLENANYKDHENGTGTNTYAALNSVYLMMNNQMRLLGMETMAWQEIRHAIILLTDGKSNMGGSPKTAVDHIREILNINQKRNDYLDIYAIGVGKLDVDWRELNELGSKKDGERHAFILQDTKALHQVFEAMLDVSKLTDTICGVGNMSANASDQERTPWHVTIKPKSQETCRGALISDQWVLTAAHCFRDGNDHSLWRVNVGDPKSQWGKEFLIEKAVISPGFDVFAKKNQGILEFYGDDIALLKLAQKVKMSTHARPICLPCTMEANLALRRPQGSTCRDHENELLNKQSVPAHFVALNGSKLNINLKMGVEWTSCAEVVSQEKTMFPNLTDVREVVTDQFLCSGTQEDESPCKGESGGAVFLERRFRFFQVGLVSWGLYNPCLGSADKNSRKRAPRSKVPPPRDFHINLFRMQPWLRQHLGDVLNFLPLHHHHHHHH

[2] = molecular target: T2, human C2 K415A (human, UniProt P06681 21-752)
T2 sequence: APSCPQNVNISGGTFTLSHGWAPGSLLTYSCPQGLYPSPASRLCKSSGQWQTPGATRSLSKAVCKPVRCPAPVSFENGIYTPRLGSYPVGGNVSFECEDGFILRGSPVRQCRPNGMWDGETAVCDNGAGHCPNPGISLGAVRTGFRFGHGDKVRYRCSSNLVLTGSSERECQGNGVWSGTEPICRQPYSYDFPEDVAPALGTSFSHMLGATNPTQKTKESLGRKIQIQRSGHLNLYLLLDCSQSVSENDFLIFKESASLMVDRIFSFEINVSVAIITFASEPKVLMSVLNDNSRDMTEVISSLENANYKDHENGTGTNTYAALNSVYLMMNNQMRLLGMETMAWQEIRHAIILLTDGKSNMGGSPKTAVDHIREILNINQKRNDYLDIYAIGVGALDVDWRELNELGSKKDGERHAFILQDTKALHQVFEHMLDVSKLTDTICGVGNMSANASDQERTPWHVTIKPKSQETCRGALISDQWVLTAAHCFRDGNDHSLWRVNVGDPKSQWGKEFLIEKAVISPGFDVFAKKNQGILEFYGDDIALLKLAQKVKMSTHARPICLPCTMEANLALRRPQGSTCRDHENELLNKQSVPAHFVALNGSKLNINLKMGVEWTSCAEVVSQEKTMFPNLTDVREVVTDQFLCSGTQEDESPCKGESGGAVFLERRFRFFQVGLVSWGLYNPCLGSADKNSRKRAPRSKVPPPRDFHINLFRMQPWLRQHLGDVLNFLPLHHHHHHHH

[3] = molecular target: T3, human C2 N467A (human, UniProt P06681 21-752)
T3 sequence: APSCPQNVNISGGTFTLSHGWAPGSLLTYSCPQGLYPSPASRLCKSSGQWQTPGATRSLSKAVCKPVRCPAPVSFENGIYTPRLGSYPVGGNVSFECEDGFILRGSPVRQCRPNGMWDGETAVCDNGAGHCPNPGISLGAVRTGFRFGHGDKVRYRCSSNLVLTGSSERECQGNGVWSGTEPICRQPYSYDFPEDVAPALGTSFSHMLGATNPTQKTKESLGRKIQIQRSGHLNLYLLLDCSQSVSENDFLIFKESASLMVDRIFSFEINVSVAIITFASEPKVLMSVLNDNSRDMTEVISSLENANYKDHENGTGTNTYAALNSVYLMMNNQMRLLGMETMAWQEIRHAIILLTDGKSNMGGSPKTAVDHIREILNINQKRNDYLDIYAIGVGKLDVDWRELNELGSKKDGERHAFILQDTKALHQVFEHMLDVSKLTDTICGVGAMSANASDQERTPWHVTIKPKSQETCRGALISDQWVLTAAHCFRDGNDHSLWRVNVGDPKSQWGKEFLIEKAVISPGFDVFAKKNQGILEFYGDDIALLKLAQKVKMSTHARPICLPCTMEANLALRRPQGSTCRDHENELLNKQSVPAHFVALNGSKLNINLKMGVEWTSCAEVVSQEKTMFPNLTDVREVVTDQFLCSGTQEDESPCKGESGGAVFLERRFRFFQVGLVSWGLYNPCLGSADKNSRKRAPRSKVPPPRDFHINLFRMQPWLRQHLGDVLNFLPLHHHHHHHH

[4] = molecular target: T4, human C2 K430A (human, UniProt P06681 21-752)
T4 sequence: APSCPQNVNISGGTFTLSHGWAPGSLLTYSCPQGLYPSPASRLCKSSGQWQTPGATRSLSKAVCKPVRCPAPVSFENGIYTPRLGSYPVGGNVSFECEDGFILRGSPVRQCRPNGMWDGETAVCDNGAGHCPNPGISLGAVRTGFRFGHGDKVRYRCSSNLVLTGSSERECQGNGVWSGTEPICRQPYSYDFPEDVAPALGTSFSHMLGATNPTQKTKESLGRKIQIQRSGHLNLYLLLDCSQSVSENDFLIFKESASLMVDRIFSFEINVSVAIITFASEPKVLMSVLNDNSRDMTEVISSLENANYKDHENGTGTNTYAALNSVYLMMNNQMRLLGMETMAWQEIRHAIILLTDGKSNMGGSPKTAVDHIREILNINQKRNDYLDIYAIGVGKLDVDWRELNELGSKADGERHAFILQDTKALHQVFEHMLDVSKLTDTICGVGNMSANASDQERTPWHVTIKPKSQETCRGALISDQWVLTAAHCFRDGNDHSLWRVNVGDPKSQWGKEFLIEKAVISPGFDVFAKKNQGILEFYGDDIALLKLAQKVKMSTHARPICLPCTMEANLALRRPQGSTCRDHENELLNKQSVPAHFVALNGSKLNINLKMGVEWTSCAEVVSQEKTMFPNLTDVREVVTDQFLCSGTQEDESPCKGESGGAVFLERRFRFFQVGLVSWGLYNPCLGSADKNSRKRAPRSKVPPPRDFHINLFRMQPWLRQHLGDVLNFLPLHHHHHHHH

B1: RF16-242 (antibody, human IgG4 S228P, lambda, V domains shown)
VH: EVQLLQSGAEVKKPGESLKISCKGSGYSFTSYWIGWVRQMPGKGLEWMGIIYPGDSDTRYSPSFQGQVTISADKSISTAYLQWSSLKASDTAMYYCARRGHYGDYFDYWGQGTLVTVSS
VL: SYELTQPPSVSVSPGQTARITCSGDALPKKYAYWYHQKSGQAPVLVIYEDRRRPSEIPERFSGSSSGTMATLTITGAQVEDEGVYFCYSRDRAGNQRVFGGGTQLTVLG
notes: pH-dependent anti-C2 antibody from a phage display library
Fold diff [1]: 3 fold | Fold diff [2]: 1 fold | Fold diff [3]: 2 fold | Fold diff [4]: 13 fold
